Data from patent US20230330253A1 (LANOVA MEDICINES, published 2023).

B1: 78C10B6G4 chimeric antibody (antibody, V domains shown)
VH: QVQLKESGPGLVAPSQSLSITCTVSGFSLINYGVSWVRQPPGKGLEWLGVIRGDGNTNYQSALRSRLSIRKDTSKSQVFLKLNSVHTDGTATYYCAKVGRGNAMDHWGQGISVIVSS
VL: DIVMTQSPSSLTVTAGEKVTMSCKSSQSLLNSGNQKNYLTWYQQRPGQPPKLLIYRASSRESGVPVRFTGSGSGTDFTLTISSVQAEDLAVYYCQNDYIYPYTFGGGTKLEMN
B2: 84E9E12 chimeric antibody (antibody, V domains shown)
VH: DVQLQESGPGLVKPSQSLSLSCSVTGYSITSGYFWTWFRQFPGNKLEWMGYISYDGSNNYNPSLKNRISITRDTSKNQFFLKLNSVTTEDTATYYCASFRFFAYWGQGTLVTVSA
VL: DIVMTQSPSSLTVTTGEKVTMSCKSSQSVFNSGNQKNYLTWYQQKPGQPPKLLVYWASTRESGVPARFTGSGSGTVFTLTISSVQAEDLAVYYCQNDYYFPLTFGAGTRLELK
B3: 44F6B11 chimeric antibody (antibody, V domains shown)
VH: EVQLVESGGDLVKPGGSLKLSCAASGFTFSNYGMSWVRQTPDKRLEWVATFSYGDSHNYYSDSVKGRFTISRDIAKDALYLQMSSLRSEDTAIYYCARFGRGNTMDYWGQGTSVTVSL
VL: DIVMTQSPSSLTVTAGEKVIMSCKSNQSLLNSGNQKKYLTWYQQKPGQSPKLLIYWASTRESGVPDRFTGSESGTDFTLTISSVRAEDLAVYYCQNGYSYPFTFGSGTKLEMK
B4: 119G11D9 chimeric antibody (antibody, V domains shown)
VH: EVQLQQSGPELVKPGASVKMSCKASGYTFTGFLMHWVKQKPGQGLEWIGYINPYNDGTKYSEKFKGKATLTSDKSSSTAFMELSSLTSDDSAVYYCARLDYGNAMDYWGQGTSVTVSS
VL: DIVMTQSPSSLTVTAGERVTMRCRSTQSLFNSGNQKNYLTWYQQKPGQPPKLLIYWASTRESGVPDRFTGGGSGTDFTLTISSVQAEDLAVYYCQNAYYYPLTFGAGTKLERK
B5: 113G12E5E6 chimeric antibody (antibody, V domains shown)
VH: QVQLKQSGPGLVQPSQSLSITCTVSDFSLTKYGVHWFRQSPGKGLEWLGVIWTGGNTDYNPALIPRLSFRKDNSKSQVFFKMNSLQSSDTAVYYCARNGYYGNAMDYWGQGTSVTVSS
VL: DIVMTQSPSSLTVTAGERVTMSCKPSQSLLNSGNQKNYLAWYQQKPGQPPKLLLYWASTRESGVPDRFKGSGSGTDFTLTISSVQAEDLAVYYCQNAYFYPCTFGGGTKLEMK
B6: 105F7G12 chimeric antibody (antibody, V domains shown)
VH: QVQLKQSGPGLVQPSQSLSITCTVSDFSLTKYGVHWFRQSPGKGLEWLGVIWTGGNTDYNPALIPRLSFRKDNSKSQVFFKMNSLQSSDTAVYYCARNGYYGNAMDYWGQGTSVTVSS
VL: DIVMTQSPSSLTVTAGERVTMSCKSSQSLLNSGNQKNYLAWYQQKPGQPPKLLLYWASTRESGVPDRFKGSGSGTDFTLTISSVQAEDLAVYYCQNAYFYPCTFGGGTKLEMK
B7: 103A10B2 chimeric antibody (antibody, V domains shown)
VH: QVQLKESGPGLVAPSQSLSITCTVSGLSLTSFGVHWIRQPPGKGLEWLGVIWAGGSTNYNSALMSRLSISKDNSKSQVYLKMHSLQTDDTAMYYCARSLYGNSFDYWGQGTALTVSS
VL: DIVMTQSPSSLTVTPGEKVTMSCRSSMSLFNSGNQKSYLSWYHQKPGQPPKLLIYWASTRDSGVPVRFTGSGSGTDFTLTISSVQAEDLAVYYCHNDYIYPLTFGAGTKLELK
B8: 101C4F12 chimeric antibody (antibody, V domains shown)
VH: QVQLKESGPGQVAPSQSLSIACTVSGFSLSSYGVHWVRQPPGKGLEWLGVIWAGGSTNYDSALMSRLTISKDNSRTRVFLKMNSLQTDDTAIYYCARSLYGNSLDSWGPGTTLTVSS
VL: DIVMTQSPSSLTVTAGEKVTMSCKSSQSLLNSGNQRNYLTWYQQKPGQPPRLLIYWSSTRDSGVPDRFTGSGSRTDFTLTISSVQAEDLAVYYCQNNFIYPLTFGAGTKLELK
B9: 56E8F10F4 chimeric antibody (antibody, V domains shown)
VH: DVQLVESGGGLVQPGGSRKLSCTASGFTFNSFGMNWVRQAPEKGLEWVAFISGGSNTIHYLDTVKGRFTISRDNPKNTLFLQMTSLRSEDTAMYYCTRLALGNAMDYWGQGTSVIVSS
VL: DIVMTQSPSSLTVTAGEKVTMSCKSSQSLLNSGNQKNYLTWYQQKPGQPPKLLIYWASTRESGVPDRFTGSGSGTYFTLTISSVQAADLAVYYCQNDYYFPFTFGSGTKLEIK
B10: 58G2C2 chimeric antibody (antibody, V domains shown)
VH: QVHLQQSGAEVVRPGTSVKVSCKASGYAFTNYLIEWIKKRPGQGLEWVGVINPGRSGTNYNEKFKGKATLTADKSSSTAYMQLSSLTSDDSAVYFCARTRYGGNAMDYWGQGTSVTVSS
VL: DIVMTQSPSSLTVTAGEKVTMSCKSSQSLLNSGNQKNYLTWYQQKPGQPPTLLIFWAFTRESGVPDRFTGSGSGTDFTLTINSVQAEDLAVYYCQNSYSYPFTFGSGTKLEIK
B11: 10G7G11 chimeric antibody (antibody, V domains shown)
VH: QVQLKESGPGLVAPSQSLSITCTISGFSLNTYGVHWVRQPPGKGLEWLVVMLSDGNTVYNSSLKSRLSLTKDNSKSQLLLKMNSLQTDDTAIYYCARHKAYGNAMDYWGQGTSVTVSS
VL: DIVMTQSPSSLTVTAGEKVTMTCKSSQSLFNSGNQRNYLTWYQRKPGQPPKLLIYWASTRESGVPDRFTGSGSGTYFTLTVSSVQAEDLAVYYCQNAYYFPFTFGSGTKLEKK
B12: 15C2B7 chimeric antibody (antibody, V domains shown)
VH: QIQLVQSGPELRKPGETVKISCKASGYTFTNYGMNWVKQAPGKGLKWMAWINANTGEPTYAEEFKGRFAFSLETSARSAYLQINSLKNEDTATYFCARLTRGNSFDYWGQGTTLTVSS
VL: DIVMTQSPSSLTVTAGGKVTVSCKSSQSLLNSGNQKNYLTWYQQKPGQPPKLLIYWASTRESGVPDRFTGSGSGTDFTLTISSVQTEDLAVYYCQNNYYFPLTFGAGTKLELK
B13: 65G8B8 chimeric antibody (antibody, V domains shown)
VH: QVQLKESGPGLVAPSQSLSITCTVSGFSLTSYGVSWVRQPPGKGLEWLGVIWGDGNTIYHSALKSRLSISRDNSKRQVFLKVNSLQIDDTATYYCAKQGLYGHAMDYWGQGTSVIVSS
VL: DIMMTQSPSSLTVTTGEKVTLTCKSSQSLLNSGNLKNYLTWYQQKPGHPPKLLIYWASTRESGVPVRFTGSGSGTDFTLTISSVQAEDLTVYYCQNVYIYPFTFGSGTKLEMR
B14: 103F4D4 chimeric antibody (antibody, V domains shown)
VH: QVQLQQSGAELARPGASVKMSCKASGYTFPTYSIHWLKQGPGQGLEWIGYINPSTIYTNYNQKFKYKATLTADKSSSTAYIQLSSLTSDDSAVYYCAREGYGRGNAMDYWGQGTSVTVSS
VL: DIVMTQSPSSQTVTAGEKVTLSCRSSQSLLNGGNQKNYLTWYQQKPGQPPKLLIYWASTRESGVPDRFTGSGSGTYFTFTISSVQAEDLAVYYCQNAYFYPFTFGAGTKLELK
B15: 20F1E10 chimeric antibody (antibody, V domains shown)
VH: QIQLVQSGPELKKPGETVKISCKASGYTFTKYGMNWVRQAPGKGLKWMGWISTNTGEPTYAEEFKGRFAFSLETSASTAFLQINNLKNEDTATYFCARLVRGNSFDFWGQGITLTVSS
VL: DIVMTQSPSSLTVTAGEKVTMSCKSSQSLFNSGNQRNYLTWYQQKPGQPPKLLIYWASTRESGVPDRFTGSGSGTDFILTITKVQAEDLAVYYCQNVYSYPLTFGAGTKLELK
B16: 110C12B6 chimeric antibody (antibody, V domains shown)
VH: EVQLQQSGPELVKPGASVKMSCKSSGYTFTGFLMHWVKQKPGQGLEWIGYINPYNDGTKYSEKFKGKATLTSDKSSSTAYMELSSLTSDDSAVYYCGRLDYGNAMDYWGQGTSVTVSS
VL: DIVMTQSPSSLTVTAGEKVTMRCRSTQSLFNSGNQRNYLTWYQQKPGQPPKLLIYWASTRESGVPDRFTGSGSGTDFTLTISSVQAEDLAVYYCQNAYYYPLTFGVGTKLERK
B17: 116A8B7 chimeric antibody (antibody, V domains shown)
VH: EVQLQQSGPELVKPGASVKMSCKSSGYTFTGFLMHWVKQKPGQGLEWIGYINPYNDGTKYSEKFKGKATLTSDKSSSTAYMELSSLTSDDSAVYYCGRLDYGNAMDYWGQGTSVTVSS
VL: DIVMTQSPSSLTVTAGEKVTMRCRSTQSLFNSGNQRNYLTWYQQKPGQPPKLLIYWASTRESGVPDRFTGSGSGTDFTLTISSVQAEDLAVYYCQNAYYYPLTFGVGTKLERK

Molecular target: human claudin 18.2 (CLDN18.2) (human)
Assay: cell-based or functional assay

Going from B1 to B2, the “Fluorescence, pHAb internalization on MKN45-CLDN18.2 cells, 20 nM antibody, normalized by DAR” value (“Fluorescence … 20 nM antibody, normalized by DAR” for short) rises from 16200 to 18700.

Compared with B3, B4 is higher in “Fluorescence … 20 nM antibody, normalized by DAR” value: 18400 for the first, 21400 for the second.

Going from B5 to B6, the “Fluorescence … 20 nM antibody, normalized by DAR” value rises from 11000 to 14800.

Compared with B7, B8 is higher in “Fluorescence … 20 nM antibody, normalized by DAR” value: 12000 for the first, 15200 for the second.

Compared with B9, B10 is lower in “Fluorescence … 20 nM antibody, normalized by DAR” value: 19900 for the first, 18600 for the second.

Compared with B11, B12 is higher in “Fluorescence … 20 nM antibody, normalized by DAR” value: 9600 for the first, 19400 for the second.

Compared with B13, B14 is higher in “Fluorescence … 20 nM antibody, normalized by DAR” value: 15100 for the first, 31200 for the second.

Compared with B15, B16 is lower in “Fluorescence … 20 nM antibody, normalized by DAR” value: 21100 for the first, 19300 for the second.

For B17, the “Fluorescence … 20 nM antibody, normalized by DAR” value was 21400.

Compared with B1, B2 is higher in “Fluorescence, pHAb internalization on MKN45-CLDN18.2 cells, 100 nM antibody, normalized by DAR” value: 29100 for the first, 35100 for the second.

Compared with B3, B4 is higher in “Fluorescence, pHAb internalization on MKN45-CLDN18.2 cells, 100 nM antibody, normalized by DAR” value: 26100 for the first, 34000 for the second.

Going from B5 to B6, the “Fluorescence, pHAb internalization on MKN45-CLDN18.2 cells, 100 nM antibody, normalized by DAR” value rises from 28900 to 43100.

Going from B7 to B8, the “Fluorescence, pHAb internalization on MKN45-CLDN18.2 cells, 100 nM antibody, normalized by DAR” value rises from 31300 to 44400.

Going from B9 to B10, the “Fluorescence, pHAb internalization on MKN45-CLDN18.2 cells, 100 nM antibody, normalized by DAR” value rises from 28700 to 33100.

Going from B11 to B12, the “Fluorescence, pHAb internalization on MKN45-CLDN18.2 cells, 100 nM antibody, normalized by DAR” value falls from 35500 to 33200.

Compared with B13, B14 is higher in “Fluorescence, pHAb internalization on MKN45-CLDN18.2 cells, 100 nM antibody, normalized by DAR” value: 20500 for the first, 49100 for the second.

Compared with B15, B16 is lower in “Fluorescence, pHAb internalization on MKN45-CLDN18.2 cells, 100 nM antibody, normalized by DAR” value: 45100 for the first, 40100 for the second.

With B17 the “Fluorescence, pHAb internalization on MKN45-CLDN18.2 cells, 100 nM antibody, normalized by DAR” value was 41700.
